Article doi:10.1101/2021.10.07.463531

Biological target: HA-Bicc1 with mutation D or with deletion of the KH tandem repeat
Experiment: co-IP

- percent reduction of co-immunoprecipitated GFP-Bicc1 relative to WT HA-Bicc1: 60 to 75%
B1: GFP-Bicc1 (natural protein)
chain: MASQSEPGYLAAAQSDPGSNSERSTDSPVAGSEDDLVAAAPLLHSPEWSEERFRVDRKKLEAMLQAAAEGKGRSGEDFFQKIMEETNTQIAWPSKLKIGAKSKKDPHIKVSGKKEDVKEAKEMIMSVLDTKSNRVTLKMDVSHTEHSHVIGKGGNNIKKVMEDTGCHIHFPDSNRNNQAEKSNQVSIAGQPAGVESARARIRELLPLVLMFELPIAGILQPVPDPNTPSIQHISQTYSVSVSFKQRSRMYGATVTVRGSQNNTNAVKEGTAMLLEHLAGSLASAIPVSTQLDIAAQHHLFMMGRNGSNVKHIMQRTGAQIHFPDPSNPQKKSTVYLQGTIESVCLARQYLMGCLPLVLMFDMKEDIEVDPQVIAQLMEQLDVFISIKPKPKQPSKSVIVKSVERNALNMYEARKCLLGLESSGVSIATSLSPASCPAGLACPSLDILASAGLGLTGLGLLGPTTLSLNTSATPNSLLNALNTSVSPLQSSSSGTPSPTLWAPPIANTASATGFSTIPHLMLPSTAQATLTNILLSGVPTYGHTAPSPPPGLTPVDVHINSMQTEGKNISASINGHVQPANMKYGPLSTSSLGEKVLSSNHGDPSMQTAGPEQASPKSNSVEGCNDAFVEVGMPRSPSHSGNAGDLKQMLGASKVSCAKRQTVELLQGTKNSHLHGTDRLLSDPELSATESPLADKKAPGSERAAERAAAAQQKSERARLASQPTYVHMQAFDYEQKKLLATKAMLKKPVVTEVRTPTNTWSGLGFSKSMPAETIKELRRANHVSYKPTMTTAYEGSSLSLSRSSSREHLASGSESDNWRDRNGIGPMGHSEFSAPIGSPKRKQNKSREHYLSSSNYMDCISSLTGSNGCNLNSCFKGSDLPELFSKLGLGKYTDVFQQQEIDLQTFLTLTDQDLKELGITTFGARRKMLLAISELSKNRRKLFEPPNASCTSFLEGGASGRLPRQYHSDIASVSGRW
